Here are results for one molecule from patent publication US20250264470A1 (RHODE ISLAND HOSPITAL, published 2025).

The target in the assay is T1, NPVEDS peptide (LRC1 epitope, residues 286-291 of ASPH) (human).
T1 peptide: NPVEDS
The assay can be described thus: peptide inhibition (data not shown).

B1: LRC1 monoclonal antibody (antibody, V domains shown)
VH: EVQLVESGGGLVKPGGSLKFSCAASGFTFSRYAMPWVRQTPEKRLEWVATISSGGSYTYYPDSVKGRLTISRDNAKNTLYLQMSSLRSEDTAMYYCARQGNYYGSSHLYYAMDYWGQGTSVTVSS
VL: QLVLTQSSSASFSLGASAKLTCTLNSQHRAYTIEWYQQQPLKPPKYVMELKKDGSHSTGDGIPDRFSGSSSGADRYLSISNIQPEDEAIYICGVGDTIKEQFVYVFGGGTKVTVL
notes: also called LRC1 mAb; LRC1 antibody
Consider B1, for which the binding result is recorded as “binds”.
